Target: Recombinant Human TNF-α/TNFSF1A (human, UniProt P01375 77-233)
Test: cell-based or functional assay

Sequence of Recombinant Human TNF-α/TNFSF1A (P01375 77-233 limits assumed): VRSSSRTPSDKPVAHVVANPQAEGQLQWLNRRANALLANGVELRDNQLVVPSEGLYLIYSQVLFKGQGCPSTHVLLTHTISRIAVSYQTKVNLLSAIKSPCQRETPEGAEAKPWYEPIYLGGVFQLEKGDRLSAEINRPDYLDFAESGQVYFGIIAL

N-Terminal VD huTNFα Neutralization Assay IC50 | C-Terminal VD huTNFα Neutralization Assay IC50 | Binder
4 pM |  | DVD3224 (bispecific antibody, IgG1) VH: EVQLVQSGAEVKKPGASVKVSCKASGYTFANYGIIWVRQAPGQGLEWMGWINTYTGKPTYAQKFQGRVTMTTDTSTSTAYMELSSLRSEDTAVYYCARKLFTTMDVTDNAMDYWGQGTTVTVSSASTKGPEVQLVESGGGLVQPGGSLRLSCAASGFSFSKYWLGWVRQAPGKGLEWVSDIYPGYDYTHYNEKFKDRFTISADTSKNTAYLQMNSLRAEDTAVYYCARSDGSSTYWGQGTLVTVSS VL: DIQMTQSPSSLSASVGDRVTITCRASQDISQYLNWYQQKPGKAPKLLIYYTSRLQSGVPSRFSGSGSGTDFTLTISSLQPEDFATYFCQQGNTWPPTFGQGTKLEIKRTVAAPDIQMTQSPSSLSASVGDRVTITCTSSQNIVHSNGNTYLEWYQQKPGKAPKLLIYKVSNRFSGVPSRFSGSGSGTDFTLTISSLQPEDFATYYCFQVSHVPYTFGQGTKVEIKR
11 pM |  | DVD3226 (bispecific antibody, IgG1) VH: EVQLVQSGAEVKKPGASVKVSCKASGYTFANYGIIWVRQAPGQGLEWMGWINTYTGKPTYAQKFQGRVTMTTDTSTSTAYMELSSLRSEDTAVYYCARKLFTTMDVTDNAMDYWGQGTTVTVSSASTKGPEVQLVESGGGLVQPGGSLRLSCAASGFSFSKYWLGWVRQAPGKGLEWVSDIYPGYDYTHYNEKFKDRFTISADTSKNTAYLQMNSLRAEDTAVYYCARSDGSSTYWGQGTLVTVSS VL: DIQMTQSPSSLSASVGDRVTITCRASQDISQYLNWYQQKPGKAPKLLIYYTSRLQSGVPSRFSGSGSGTDFTLTISSLQPEDFATYFCQQGNTWPPTFGQGTKLEIKRTVAAPSVFIFPPDIQMTQSPSSLSASVGDRVTITCTSSQNIVHSNGNTYLEWYQQKPGKAPKLLIYKVSNRFSGVPSRFSGSGSGTDFTLTISSLQPEDFATYYCFQVSHVPYTFGQGTKVEIKR
2 pM |  | DVD3223 (bispecific antibody, IgG1) VH: EVQLVQSGAEVKKPGASVKVSCKASGYTFANYGIIWVRQAPGQGLEWMGWINTYTGKPTYAQKFQGRVTMTTDTSTSTAYMELSSLRSEDTAVYYCARKLFTTMDVTDNAMDYWGQGTTVTVSSGGGGSGGGGSEVQLVESGGGLVQPGGSLRLSCAASGFSFSKYWLGWVRQAPGKGLEWVSDIYPGYDYTHYNEKFKDRFTISADTSKNTAYLQMNSLRAEDTAVYYCARSDGSSTYWGQGTLVTVSS VL: DIQMTQSPSSLSASVGDRVTITCRASQDISQYLNWYQQKPGKAPKLLIYYTSRLQSGVPSRFSGSGSGTDFTLTISSLQPEDFATYFCQQGNTWPPTFGQGTKLEIKRGGSGGGGSGDIQMTQSPSSLSASVGDRVTITCTSSQNIVHSNGNTYLEWYQQKPGKAPKLLIYKVSNRFSGVPSRFSGSGSGTDFTLTISSLQPEDFATYYCFQVSHVPYTFGQGTKVEIKR
 | 243 pM | DVD3222 (bispecific antibody, IgG1) VH: EVQLVESGGGLVQPGGSLRLSCAASGFSFSKYWLGWVRQAPGKGLEWVSDIYPGYDYTHYNEKFKDRFTISADTSKNTAYLQMNSLRAEDTAVYYCARSDGSSTYWGQGTLVTVSSASTKGPSVFPLAPEVQLVESGGGLVQPGGSLRLSCAASGFTFSNYGVEWVRQAPGKGLEWVSGIWADGSTHYADTVKSRFTISRDNSKNTLYLQMNSLRAEDTAVYYCAREWQHGPVAYWGQGTLVTVSS VL: DIQMTQSPSSLSASVGDRVTITCTSSQNIVHSNGNTYLEWYQQKPGKAPKLLIYKVSNRFSGVPSRFSGSGSGTDFTLTISSLQPEDFATYYCFQVSHVPYTFGQGTKVEIKRTVAAPDIQMTQSPSSLSASVGDRVTITCKASQLVSSAVAWYQQKPGKAPKLLIYWASTLHTGVPSRFSGSGSGTDFTLTISSLQPEDFATYYCQQHYRTPFTFGQGTKLEIKR

— patent US20140271457A1 (AbbVie / Abbott, published 2014)
